Measured values as given in patent US9428783B2, “DNA encoding dipeptide-synthesizing enzyme (variants), bacterium belonging to the genus Escherichia, and methods for producing dipeptides using thereof” (Ajinomoto Co., Inc., priority 2012, dated 2016).

Columns and labels:
Assay type in all cases: biochemical
[1] = Asp-Phe synthesizing activity of MBP fused His6-tagged DES; conditions: 160 μg DES, 100 mM L-Asp, 100 mM L-Phe, 10 mM ATP, pH 9.0, 37° C., 15 hours
Method: Dipeptides synthesized by MBP fused His6-tagged DES were determined using HPLC analysis of reaction mixture of total volume of 400 μL, which contained:
Reactions were carried out at 37° C. for 15 hours. Then the reaction mixture, into which 10 μl of 1 M EDTA, pH9.0 was added to stop the enzymatic reaction, was subjected to HPLC analysis. The conditions were as described in Example 4. As a result, DES catalyzes formation of 0.30 mM Asp-Phe.

[2] = Preliminary analysis of substrate specificity by TLC; conditions: 4 μg enzyme, 10 mM each amino acid, 10 mM ATP, pH 8.0, 32° C., 15 hours
From the text: The substrate specificity of BBR47_51900 and Staur_4851 was studied in the reaction mixture containing the enzyme and canonical L-amino acids such as L-alanine, L-arginine, L-asparagine, L-aspartic acid, L-cysteine, glycine, L-glutamic acid, L-glutamine, L-histidine, L-isoleucine, L-leucine, L-lysine, L-methionine, L-phenylalanine, L-proline, L-serine, L-threonine, L-tryptophan, L-tyrosine, and L-valine, or salts thereof, of the same or two different kinds. The composition of the reaction mixture of total volume of 50 μL was as follows unless otherwise noted:
Reactions were carried out at 32° C. for 15 hours. 1-2 μL of reaction mixture was subjected to thin layer chromatography (TLC) analysis using as mobile phase the mixture of 2-propanol:acetone:250 mM ammonia:H2O as 100:100:12:28. […] Detection was performed at 540 nm. The new spots on TLC-plates were detected after developing the reaction mixtures, which contained: […]

[3] = HPLC determination of dipeptides synthesized by the enzymes; conditions: 160 μg enzyme, 10 mM substrates, 10 mM ATP, pH 9.0, 32° C., 15 hours
Method: Dipeptides synthesized by BBR47_51900 and Staur_4851 were determined using HPLC analysis of reaction mixtures of total volume of 400 μL, which contained:
Reactions were carried out at 32° C. for 15 hours. Then […] of reaction mixture was filtered through the Amicon Ultra-0.5 mL, 3K Centrifugal Filters (Millipore, #UFC500396) and subjected to HPLC analysis.
The conditions were as follows: • Equipment: HITACHI L-2000 series. • Column: Inertsil ODS-3 4.6×250 mm, […] (GL Sciences Inc.). • Temperature: 40° C. • Buffers:
A (for mixture L-Asp/L-Val and L-Glu/L-Val): 0.1 M KH2PO4 (pH 2.2)+5 mM octanesulfonate, sodium salt: CH3CN as 4:1 (v/v),
B (for mixture L-Asp/L-Phe): 0.1 M KH2PO4 (pH 2.2)+5 mM octanesulfonate, sodium salt: CH3CN as 7:3 (v/v),
C (for mixture L-Asp/L-PheOMe, L-Asp/L-Trp, and L-Val/L-Val): 0.1 M KH2PO4 (pH 2.2)+5 mM octanesulfonate, sodium salt:CH3CN as 3:2 (v/v),
D (for mixture L-Phe/L-Phe): 0.1 M KH2PO4 (pH 2.2)+5 mM octanesulfonate, sodium salt: CH3CN as 1:1 (v/v). • Gradient profile: isocratic. • Flow rate: 1.5 mL/min. • Injection volume: 10 μL. • Detection: UV 210 nm.
Solution of αGlu-Val, γGlu-Val, αAsp-Val (10 mM each) and αAsp-Phe, βAsp-Phe (5 mM each) were prepared for HPLC analysis. The concentration of a dipeptide formed was determined using corresponding calibration curves. Each solution with standard sample was diluted to 50-folds or 100-folds for LC-QTOF/MS/MS analysis (Example 5).

[4] = Enzymatic production of Asp-Phe using ATP regeneration system; conditions: 0.15 U enzyme, 100 mM L-AspNa, 100 mM L-Phe, 37° C.
Method: The product yield of Asp-Phe was studied in the reaction mixture of BBR47_51900 and Staur_4851 containing phosphoenolpyruvate and pyruvate kinase for regeneration of ATP in order to prevent highly concentrated ATP from inhibiting the enzyme reaction. The composition of the reaction mixture of total volume of 1 ml was as follows.
Reactions were carried out at 37° C. for 1-48 hours. 100 μL out of the 1 mL reaction mixture was sampled at each reaction time. Each reaction mixture, into which 10 μL of 1 M EDTA (pH9.0) was added to stop the reaction, was subjected to HPLC analysis. The condition was as described in Example 4. As a result, BBR47_51900 and Staur_4851 could produce Asp-Phe in the ATP regeneration system (Table 9).

[5] = LC-QTOF/MS/MS determination of dipeptides synthesized; conditions: reaction mixtures of Example 4
From the text: Samples of reaction mixtures and standard solutions obtained as described in Example 4 were subjected to LC-QTOF/MS/MS analysis.
The conditions were as follows:
Equipment: LC (Agilent1200SL), MS (Micromass Q-TOF Premier)
Column: Develosil C30 2.0×250 mm, 3 μm (Nomura Chemical).
Buffers: • A: H2O (0.025% Formic acid), • B: CH3CN (0.025% Formic acid).

Dipeptides (mM) Asp-Phe [3] [mM] | Dipeptides (mM) Asp-PheOMe [3] [mM] | Dipeptides (mM) Asp-Trp [3] [mM] | Dipeptides (mM) Asp-Val [3] [mM] | Dipeptides (mM) Glu-Val [3] [mM] | Molecule | Asp-Phe formed [1] [mM] | L-amino acid pairs giving new spots on TLC-plates (ligation) [2] | Asp-Phe ([4]; 1 hr) [mM] | Asp-Phe ([4]; 2 hr) [mM] | Asp-Phe ([4]; 4 hr) [mM] | Asp-Phe ([4]; 8 hr) [mM] | Asp-Phe ([4]; 24 hr) [mM] | Asp-Phe ([4]; 48 hr) [mM] | Dipeptides whose formation is catalyzed (LC-QTOF/MS/MS) [5]
– | – | – | – | – | DES: pyridoxal-phosphate dependent enzyme from Desmospora sp. 8437, SEQ ID NO: 6; tested as MBP fused His6-tagged DES (protein, MBP fusion, His6 tag; Desmospora sp. 8437) MKKKLLFVEGNTTGTGILALEKARKLGYEPVFLTQEASRYDGLPEAKCRVHVTVTDSIHELKRCVSQEKAEAVAGILTTSDYYLEISAKLVQELGLTGNSPQAIHLCRNKALYREKLRSKSVPQPNFHIIRSMEDLRETRESVPLPCLVKPADDSGSNNVRLCFSWGEVEQLTSKILKIERNARGQKTSQTVLLEEYIEGPEYSVEMFSWQGKSTCIGITEKQLTGYPYFVESGHVFPAVLPTDVQQEIEKTVKQSLEAVHFQFGASHSEVKWTPNGCVMIETNARLAGGMIPELVRHSTGVDLIEQQILCAAGVAPHWKQVVPTGCSGIHFIVAAEAGRLSSVDNLEAVRKLPGVEEMMVKAQVGQAVQPPKNFSDRLGHVIVSGKSYEEVVERLHKISNMISLKIS | 0.30 | – | – | – | – | – | – | – | –
1.22 | 0.03 | 0.13 | 3.9 | 1.48 | BBR47_51900: L-amino acid α-ligase (hypothetical protein) from Brevibacillus brevis NBRC 100599, SEQ ID NO: 2 (protein, Brevibacillus brevis NBRC 100599) MNKHFLFVEANTTGTGMLAMKKARKLGFTPVFFTEKPERYHGLNELECHVVVTDTNSQAELTDSVAQVSKEGREIAGIMSTSDYYLESVAKLARKFGWISNSLEAIEACRNKAIFREKLQRHQVSQPTFLAISSMEQLLEARSSISLPCVVKPADDSGSNNVRLCFSWDEVEHMAAEILAIKYNARGQETARTVLLEQYAEGPEFSVETFSWQGQCFVIGITQKRLTGYPFFVEAGHIFPAPLSVEEKQEIERTVERALAAVKYQFGAAHTEVKWTSAGCVVIEVNARLAGGMIPELVRRSTGIDLLLQQIRCAAGLEPELSQTIEEQRCAGIHFLVSESQGTFGGIKGMDTVRNLPGIAEVAIHAKIGQNVQPPQNFSHRLGYVIVEGKHYSETAELIEQVKDSLSVQVGQQLESGV | – | L-Glu/L-Glu, or L-Glu/L-Asp, or L-Glu/L-Val, or L-Glu/L-Ile, or L-Asp/L-Ile, or L-Asp/L-Val | 7 | 13 | 24 | 40 | 68 | 74 | αAsp-Phe, αAsp-Val, and αGlu-Val
